This is an account of results in PMC7828300.

The target in this assay is AAV12 capsid viral protein (VP) (Adeno-associated virus 12). The experiment in a line: cryo-EM structure.

In general, stoichiometry N refers to a count of units in the complex or per binding partner.

“AAV12 capsid viral protein (VP) (natural protein)” came in with a stoichiometry N of 60.
